pKd: −log10 of the molar value. Each block holds one sequence with its values, some of them ahead of it.
Tests used:
HLA-A*24:03 [1] = test: IEDB peptide-MHC binding, purified MHC/direct/fluorescence; filed as Kd, often an IC50 or EC50 that approximates it; ≥ and ≤ were set here for values at or beyond the usual limits of such assays
HLA-B*39:01 [2] = test: as above; details: source organism: Yersinia enterocolitica subsp. enterocolitica 8081
HLA-A*68:02 [3] = test: as above
HLA-B*27:03 [4] = test: as above; details: source organism: Yersinia enterocolitica subsp. enterocolitica 8081
HLA-B*18:01 [5] = test: as above; details: source organism: Yersinia enterocolitica subsp. enterocolitica 8081
HLA-A*02:01 [6] = test: as above; details: source organism: Yersinia enterocolitica subsp. enterocolitica 8081
HLA-A*02:19 [7] = test: as above
HLA-A*26:01 [8] = test: as above; details: source organism: Yersinia enterocolitica subsp. enterocolitica 8081
HLA-B*46:01 [9] = test: as above; details: source organism: Yersinia enterocolitica subsp. enterocolitica 8081
HLA-B*57:01 [10] = test: as above; details: source organism: Yersinia enterocolitica subsp. enterocolitica 8081
HLA-A*02:12 [11] = test: as above
HLA-A*02:16 [12] = test: as above
HLA-A*69:01 [13] = test: as above; details: source organism: Yersinia enterocolitica subsp. enterocolitica 8081
HLA-A*03:01 [14] = test: as above
HLA-A*02:03 [15] = test: as above
HLA-B*15:01 [16] = test: as above
HLA-B*15:17 [17] = test: as above; details: source organism: Yersinia enterocolitica subsp. enterocolitica 8081
HLA-A*02:11 [18] = test: as above
HLA-B*39:01 [19] = test: IEDB peptide-MHC binding, purified MHC/competitive/fluorescence; filed as Kd, often an IC50 or EC50 that approximates it; ≥ and ≤ were set here for values at or beyond the usual limits of such assays
HLA-B*40:01 = test: as above
HLA-B*15:01 [20] = test: as above
HLA-B*35:01 = test: as above
HLA-B*51:01 = test: as above
HLA-B*08:01 = test: as above
HLA-A*29:02 [21] = test: IEDB peptide-MHC binding, purified MHC/direct/fluorescence; filed as Kd, often an IC50 or EC50 that approximates it; ≥ and ≤ were set here for values at or beyond the usual limits of such assays; details: source organism: Orthohantavirus tulaense
HLA-A*23:01 = test: as above; details: source organism: Orthohantavirus tulaense
HLA-B*27:03 [22] = test: IEDB peptide-MHC binding, purified MHC/competitive/fluorescence; filed as Kd, often an IC50 or EC50 that approximates it; ≥ and ≤ were set here for values at or beyond the usual limits of such assays
HLA-B*18:01 [23] = test: as above; details: source organism: Orthohantavirus tulaense
HLA-A*02:01 [24] = test: as above
HLA-A*26:01 [25] = test: as above
HLA-B*46:01 [26] = test: as above
HLA-B*57:01 [27] = test: as above; details: source organism: Orthohantavirus tulaense
HLA-A*01:01 = test: as above
HLA-A*69:01 [28] = test: as above
HLA-B*15:17 [29] = test: as above
HLA-A*24:03 [30] = test: as above; details: source organism: Homo sapiens
HLA-A*29:02 [31] = test: as above; details: source organism: Homo sapiens
HLA-A*68:02 [32] = test: as above; details: source organism: Homo sapiens
HLA-A*02:19 [33] = test: as above; details: source organism: Homo sapiens
HLA-A*02:12 [34] = test: as above; details: source organism: Homo sapiens
HLA-A*02:16 [35] = test: as above; details: source organism: Homo sapiens
HLA-A*03:01 [36] = test: as above
HLA-A*02:03 [37] = test: as above; details: source organism: Homo sapiens
HLA-A*02:11 [38] = test: as above; details: source organism: Homo sapiens
HLA-B*07:02 = test: as above
[39] = source organism: Yersinia enterocolitica subsp. enterocolitica 8081
[40] = source organism: Escherichia coli
[41] = source organism: Shigella flexneri 5 str. 8401
[42] = source organism: Orthohantavirus tulaense
[43] = source organism: Mycobacterium tuberculosis variant bovis
[44] = source organism: Salmonella enterica subsp. enterica serovar Typhi
[45] = source organism: Yersinia pestis Nepal516
[46] = source organism: Escherichia coli 536

Sequence: KSRQGDTKV
pKd (HLA-A*24:03 [1]; [39]): ≤ 4.70
pKd (HLA-B*39:01 [2]): ≤ 4.70
pKd (HLA-A*68:02 [3]; [39]): ≤ 4.70
pKd (HLA-B*27:03 [4]): ≤ 4.70
pKd (HLA-B*18:01 [5]): ≤ 4.70
pKd (HLA-A*02:01 [6]): ≤ 4.70
pKd (HLA-A*02:19 [7]; [39]): ≤ 4.70
pKd (HLA-A*26:01 [8]): ≤ 4.70
pKd (HLA-B*46:01 [9]): ≤ 4.70
pKd (HLA-B*57:01 [10]): ≤ 4.70
pKd (HLA-A*02:12 [11]; [39]): ≤ 4.70
pKd (HLA-A*02:16 [12]; [39]): ≤ 4.70
pKd (HLA-A*69:01 [13]): ≤ 4.70
pKd (HLA-A*03:01 [14]; [39]): ≤ 4.70
pKd (HLA-A*02:03 [15]; [39]): ≤ 4.70
pKd (HLA-B*15:01 [16]; [39]): ≤ 4.70
pKd (HLA-B*15:17 [17]): 6.55
pKd (HLA-A*02:11 [18]; [39]): ≤ 4.70

pKd (HLA-B*39:01 [19]; [40]): 6.97
pKd (HLA-B*40:01; [40]): 6.06
pKd (HLA-B*15:01 [20]; [40]): ≤ 4.70
Sequence: LQEEMAETL

Sequence: LPRRLQLLF
pKd (HLA-B*35:01; [41]): 8.54
pKd (HLA-B*51:01; [41]): 5.58
pKd (HLA-B*08:01; [41]): 5.40

Sequence: VVDALRNIY
pKd (HLA-A*24:03 [1]; [42]): ≤ 4.70
pKd (HLA-A*29:02 [21]): ≤ 4.70
pKd (HLA-A*68:02 [3]; [42]): ≤ 4.70
pKd (HLA-A*02:19 [7]; [42]): ≤ 4.70
pKd (HLA-A*02:12 [11]; [42]): ≤ 4.70
pKd (HLA-A*02:16 [12]; [42]): ≤ 4.70
pKd (HLA-A*03:01 [14]; [42]): ≤ 4.70
pKd (HLA-A*02:03 [15]; [42]): ≤ 4.70
pKd (HLA-A*23:01): ≤ 4.70
pKd (HLA-A*02:11 [18]; [42]): ≤ 4.70
pKd (HLA-B*39:01 [19]; [42]): ≤ 4.70
pKd (HLA-B*27:03 [22]; [42]): ≤ 4.70
pKd (HLA-B*18:01 [23]): ≤ 4.70
pKd (HLA-B*51:01; [42]): ≤ 4.70
pKd (HLA-A*02:01 [24]; [42]): ≤ 4.70
pKd (HLA-A*26:01 [25]; [42]): ≤ 4.70
pKd (HLA-B*46:01 [26]; [42]): ≤ 4.70
pKd (HLA-B*57:01 [27]): ≤ 4.70
pKd (HLA-A*01:01; [42]): 8.20
pKd (HLA-A*69:01 [28]; [42]): ≤ 4.70
pKd (HLA-B*15:17 [29]; [42]): ≤ 4.70

pKd (HLA-A*24:03 [30]): ≤ 4.70
pKd (HLA-A*29:02 [31]): ≤ 4.70
pKd (HLA-B*39:01 [19]; source organism: Homo sapiens): ≤ 4.70
pKd (HLA-A*68:02 [32]): ≤ 4.70
pKd (HLA-B*27:03 [22]; source organism: Homo sapiens): ≤ 4.70
pKd (HLA-B*51:01; source organism: Homo sapiens): ≤ 4.70
pKd (HLA-A*02:01 [24]; source organism: Homo sapiens): ≤ 4.70
pKd (HLA-A*02:19 [33]): ≤ 4.70
pKd (HLA-A*26:01 [25]; source organism: Homo sapiens): ≤ 4.70
pKd (HLA-B*46:01 [26]; source organism: Homo sapiens): ≤ 4.70
pKd (HLA-A*02:12 [34]): ≤ 4.70
pKd (HLA-A*01:01; source organism: Homo sapiens): 6.27
pKd (HLA-A*02:16 [35]): ≤ 4.70
pKd (HLA-A*69:01 [28]; source organism: Homo sapiens): ≤ 4.70
pKd (HLA-A*03:01 [36]; source organism: Homo sapiens): ≤ 4.70
pKd (HLA-A*02:03 [37]): ≤ 4.70
pKd (HLA-B*15:01 [20]; source organism: Homo sapiens): ≤ 4.70
pKd (HLA-B*15:17 [29]; source organism: Homo sapiens): ≤ 4.70
pKd (HLA-A*02:11 [38]): ≤ 4.70
Sequence: SSDLRSWTF

Sequence: EEISSIISL
pKd (HLA-B*40:01; source organism: Bacillus anthracis str. A2012): 8.64

Sequence: ELNITSATY
pKd (HLA-B*15:01 [16]; [43]): 6.34
pKd (HLA-B*35:01; [43]): 7.74

Sequence: QATAQAAAY
pKd (HLA-B*15:01 [16]; [43]): 5.22
pKd (HLA-B*35:01; source organism: Mycobacterium tuberculosis C): 7.84

Sequence: REWSGLNYL
pKd (HLA-B*40:01; [44]): 8.48

Sequence: NTLGITHLY
pKd (HLA-A*01:01; [45]): 7.35
pKd (HLA-A*03:01 [36]; [45]): ≤ 4.70
pKd (HLA-B*15:01 [20]; [45]): 5.52

pKd (HLA-B*51:01; [46]): 6.51
pKd (HLA-B*07:02; [46]): 6.71
pKd (HLA-B*08:01; [46]): 6.40
Sequence: HPYKIPATV

Sequence: LPSWLLAPV
pKd (HLA-B*07:02; [44]): 7.18

From the Immune Epitope Database (IEDB)
